In patent US20240209086A1 (PETMEDIX, published 2024):
Substitutions are numbered along the chain they refer to.

B1: PMX158 (monospecific anti-canine CD3, canine IgG-B effector function deficient Fc) (antibody, V domains shown)
VH: ELTLQESGPGLVKPSQTLSLTCVVSGGSVTRSYYWNWIRQRPGRGLEWMGYWTGTTNYNPAFQGRISITADTAKNQCSLQLSSMTTEDTAVYYCAREGGKLLGAFGHWGQGTLVTVSS
VL: SYVLTQLPSKNVTLKQPAHITCGGDKIGSKSVHWYQQKLGQAPVLIIYYDSSRLTGIPERFSGANSGNTATLTISGALAEDEADYYCQVWDSSAKASVFGGGTHLTVL
B2: PMX159 (monospecific anti-canine CD3, canine IgG-B effector function deficient Fc) (antibody, V domains shown)
VH: ELTLQESGPGLVKPSQTLSLTCVVSGGSVTRSYYWNWIRQRPGRGLEWMGYWTGSTIYNPTFQGRISITADTAKSQFSLQLRSMTTEDTAMYFCAREGGKSLGAFAYWGQGTLVTVSS
VL: B1 VL with S31N, L45M, L54P, S97A
B3: PMX157 (monospecific anti-canine CD3, canine IgG-B effector function deficient Fc) (antibody, V domains shown)
VH: ELTLQESGPGLVKPSQTLSLTCVVSGGSVTSSYFWNWIRQRPGRGLEWMGYWTGSTIYSPAFQGRISITPDTAKNQFSLQLSSMTTEDTAVYYCSREGGSTLGAFAYWGQGTLVTVSS
VL: B1 VL with L54P
B4: PMX162 (monospecific anti-canine CD3, canine IgG-B effector function deficient Fc) (antibody)
heavy: EMQLVESGGDLVKPGGSLRLSCVASGFTFSTYHMSWVRQAPGKGLQWVAYSNSGGTRTYYADAVKGRFTISRDNVKNTLYLQMNSLRAEDTAVYYCASEGSGGGRYGFKDYGMDYWGHGTSLFVSTASTTAPSVFPLAPSCGSTSGSTVALACLVSGYFPEPVTVSWNSGSLTSGVHTFPSVLQSSGLYSLSSMVTVPSSRWPSETFTCNVAHPASKTKVDKPVPKRENGRVPRPPDCPKCPAPESLGGPSVFIFPPKPKDTLLIARTPEVTCVVVDLGREDPEVQISWFVDGKQMQTAKTQPREEQFNGTYRVVSVLPIGHQDWLKGKQFTCKVNHIGLPSPIERTISKARGQAHQPSVYVLPPSREELSKNTVSLTCLIKDFFPPDIDVEWQSNGQQEPESKYRTTPPQLDEDGSYFLYSKLSVDKSRWQRGDTFICAVMHEALHNHYTQKSLSHSPGK
VL: B1 VL with K26N, L54P, S97W, G101E, H104Q
B5: PMX163 (monospecific anti-canine CD3, canine IgG-B effector function deficient Fc) (antibody, V domains shown)
VH: ELALQESGPGLVRPSQTLSLTCVVSGGSVTRSYYWNWIRQRPGRGLEWMGYWTGTTIYNPAFQGRISITVDTAKNQFSLHLISMTTEDTAVYYCGREGGSSLGAIAYWGQGTRVTVSS
VL: B1 VL with K26N, L54P, S97A
B6: PMX160 (monospecific anti-canine CD3, canine IgG-B effector function deficient Fc) (antibody)
heavy: EVQMVESGGDLVKPGGSLRFSCVASGFTFSSYHMSWVRQAPGKGLQWVAYINSGGSRTSYADAVKGRFTISRDNAKNTLYLQMNSLRAEDTAVYYCASGRSPPPLGSFDYGLDYWGHGTSLFVSSASTTAPSVFPLAPSCGSTSGSTVALACLVSGYFPEPVTVSWNSGSLTSGVHTFPSVLQSSGLYSLSSMVTVPSSRWPSETFTCNVAHPASKTKVDKPVPKRENGRVPRPPDCPKCPAPESLGGPSVFIFPPKPKDTLLIARTPEVTCVVVDLGREDPEVQISWFVDGKQMQTAKTQPREEQFNGTYRVVSVLPIGHQDWLKGKQFTCKVNHIGLPSPIERTISKARGQAHQPSVYVLPPSREELSKNTVSLTCLIKDFFPPDIDVEWQSNGQQEPESKYRTTPPQLDEDGSYFLYSKLSVDKSRWQRGDTFICAVMHEALHNHYTQKSLSHSPGK
VL: B1 VL with K26N, L54P, S97W, G101E, H104Q
B7: PMX167 (monospecific anti-canine CD3, canine IgG-B effector function deficient Fc) (antibody, V domains shown)
VH: EVKLVESGGDLVKPGGSLRLSCMASGFTLNNYYMSWVRQAPGKGLQWVAYIKSGGSDTSYVDAVKGRFTISRDNAKNTLHLQMNSLRVEDTAVYYCATDGYIWAWGQGTLVTVSS
VL: B1 VL with K26N, S51N, L54P, N65K, A94S, S97Y, G101S, H104Q
B8: PMX165 (monospecific anti-canine CD3, canine IgG-B effector function deficient Fc) (antibody)
heavy: EVQLVESGGDLVKPGGSLRLSCVASGFNFSASHMSWVRQAPGKGLQWVAYITNAGGRISYADAVKGRFTISRDNAKNTLYLQMSSLRVEDTAVYYCATERPGRRMGLKDYGMDYWGHGTSLFVSSASTTAPSVFPLAPSCGSTSGSTVALACLVSGYFPEPVTVSWNSGSLTSGVHTFPSVLQSSGLYSLSSMVTVPSSRWPSETFTCNVAHPASKTKVDKPVPKRENGRVPRPPDCPKCPAPESLGGPSVFIFPPKPKDTLLIARTPEVTCVVVDLGREDPEVQISWFVDGKQMQTAKTQPREEQFNGTYRVVSVLPIGHQDWLKGKQFTCKVNHIGLPSPIERTISKARGQAHQPSVYVLPPSREELSKNTVSLTCLIKDFFPPDIDVEWQSNGQQEPESKYRTTPPQLDEDGSYFLYSKLSVDKSRWQRGDTFICAVMHEALHNHYTQKSLSHSPGK
VL: B1 VL with K26N, L54P
B9: PMX178 (monospecific anti-canine CD3, canine IgG-B effector function deficient Fc) (antibody, V domains shown)
VH: B5 VH
VL: B1 VL with K26N, S29R, L54P, S97A
B10: PMX168 (monospecific anti-canine CD3, canine IgG-B effector function deficient Fc) (antibody, V domains shown)
VH: B1 VH
VL: B1 VL with L54P
B11: PMX173 (monospecific anti-canine CD3, canine IgG-B effector function deficient Fc) (antibody)
heavy: B4 heavy with M2V, N52H, V75G
VL: B1 VL with K26N, L54P, S97W, G101E, H104Q
B12: PMX166 (monospecific anti-canine CD3, canine IgG-B effector function deficient Fc) (antibody, V domains shown)
VH: B3 VH
VL: B1 VL with K26N, L54P

Molecular target: canine CD3 on canine T cells (canine PBMC) (canine, UniProt P27597 22-202)
Sequence (P27597 22-202 limits assumed, chain 1 of 3): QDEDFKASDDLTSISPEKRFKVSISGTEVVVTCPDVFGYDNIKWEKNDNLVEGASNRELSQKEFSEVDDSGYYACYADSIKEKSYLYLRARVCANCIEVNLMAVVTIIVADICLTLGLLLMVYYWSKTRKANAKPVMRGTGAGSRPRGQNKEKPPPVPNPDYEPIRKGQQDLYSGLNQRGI
Sequence (chain, as listed by the source limits assumed, chain 2 of 3): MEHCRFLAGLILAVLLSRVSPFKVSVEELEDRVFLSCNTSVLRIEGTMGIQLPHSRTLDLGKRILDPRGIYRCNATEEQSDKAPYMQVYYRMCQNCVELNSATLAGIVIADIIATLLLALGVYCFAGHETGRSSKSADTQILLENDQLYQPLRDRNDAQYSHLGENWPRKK
Sequence (chain, as listed by the source limits assumed, chain 3 of 3): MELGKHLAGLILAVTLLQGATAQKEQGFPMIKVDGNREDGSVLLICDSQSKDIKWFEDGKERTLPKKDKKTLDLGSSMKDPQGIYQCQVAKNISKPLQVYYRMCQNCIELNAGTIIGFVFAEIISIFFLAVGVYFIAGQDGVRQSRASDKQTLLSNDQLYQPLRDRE
Test: cell-based or functional assay

| Binder | CD25 Activation, Day 6, IS | CD25 Activation, Day 6, PB | CD25 Activation, Day 9, IS | CD25 Activation, Day 9, PB | IFNy Concentration pg/ml, Day 6, IS [pg/mL] | IFNy Concentration pg/ml, Day 9, IS [pg/mL] | IFNy Concentration pg/ml, Day 9, PB [pg/mL] | Ki67 Proliferation, Day 6, IS | Ki67 Proliferation, Day 6, PB | Ki67 Proliferation, Day 9, IS | Ki67 Proliferation, Day 9, PB |
| --- | --- | --- | --- | --- | --- | --- | --- | --- | --- | --- | --- |
| B1 | 13.1 | 9.65 | 5.45 | 12.3 | 48.2 | 88.3 | 2440 | 2.63 | 0.54 | 0.45 | 0 |
| B2 | 11.3 | 11.5 | 9.13 | 13.1 | 137 | 262 | 3050 | 1.69 | 0.37 | 1.28 | 0 |
| B3 | 9.65 | 11.6 | 9.96 | 8.72 | 44.4 | 209 | 3140 | 1.24 | 0.4 | 0.85 | 0.34 |
| B4 | 16 | 8.64 | 8.75 | 10.4 | 61.1 | 89.2 | 330 | 1.73 | 0.36 | 0.51 | 0.43 |
| B5 | 13.3 | 18.8 | 10.1 | 14.6 | 56.2 | 145 | 3770 | 4.91 | 0.3 | 0.71 | 0.75 |
| B6 | 10.6 | 9.42 | 7.14 | 5.98 | 36.5 | 114 | 1460 | 0.84 | 0.12 | 1.87 | 0.33 |
| B7 | 7.09 | 4.93 | 11.6 | 12.8 | 63.5 | 802 | 1290 | 1.55 | 0 | 2.66 | 0.25 |
| B8 | 12.1 | 13.4 | 10.4 | 23.6 | 74.6 | 108 | 1370 | 1.67 | 0.26 | 1.3 | 0 |
| B9 | 9.79 | 20.5 | 8.41 | 9.23 | 24.7 | 223 | 2110 | 0.84 | 1.13 | 1.83 | 0.16 |
| B10 | 7.17 | 13.4 | 8.87 | 6.52 | 61.1 | 301 | 2450 | 1.57 | 0.15 | 1.53 | 0.36 |
| B11 | 8.5 | 13.3 | 9.37 | 11.5 | 56.7 | 125 | 1110 | 1.01 | 0.57 | 1.38 | 0.34 |
| B12 | 11.4 | 14.5 | 9.15 | 22 | 67.6 | 112 | 2780 | 2.77 | 0.95 | 0.92 | 1.28 |
